This data set deals with the molecule itself. Put plainly: transmission electron microscopy; purified VLPs on carbon coated copper grids, stained with 2% uranyl acetate, 80 kV; also confirmed by atomic force microscopy (Figure S1).

The source of these data is article PMC6515374, “Virus-Like Particle Facilitated Deposition of Hydroxyapatite Bone Mineral on Nanocellulose after Exposure to Phosphate and Calcium Precursors” (International Journal of Molecular Sciences, 2019).

B1: Tobacco mosaic virus coat protein subunit with the E50Q and D77N mutations (assembles into TMV virus-like particles) (natural protein, UniProt P69687 1-159, looked up)
chain: MSYSITTPSQFVFLSSAWADPIELINLCTNALGNQFQTQQARTVVQRQFSQVWKPSPQVTVRFPDSDFKVYRYNAVLNPLVTALLGAFDTRNRIIEVENQANPTTAETLDATRRVDDATVAIRSAINNLIVELIRGTGSYNRSSFESSSGLVWTSGPAT
notes: Tobacco mosaic virus coat protein, codon optimized for bacterial expression, in pET-21a(+) at NdeI/XhoI with a stop codon to prevent fusion to the His tag; No tag: a stop codon stands before the vector's His tag; Assembles without viral RNA into rods of 18 nm diameter and variable length; also called TMV VLPs; TMV CP; source: E. coli BL21(DES)pLysS, purified (chloroform, PEG 8000/NaCl …)
B1: the binding result is on record as “binds”.
